# Patent US20230220042A1 (SHANGHAI JIAO TONG UNIVERSITY SCHOOL OF MEDICINE, published 2023)
# T1: FcγRIIA^131H (human, UniProt P12318 34-217, biotin-labeled)
# T1 construct: extracellular domain; Bought protein; also called RIIAH
# T1 sequence (looked up): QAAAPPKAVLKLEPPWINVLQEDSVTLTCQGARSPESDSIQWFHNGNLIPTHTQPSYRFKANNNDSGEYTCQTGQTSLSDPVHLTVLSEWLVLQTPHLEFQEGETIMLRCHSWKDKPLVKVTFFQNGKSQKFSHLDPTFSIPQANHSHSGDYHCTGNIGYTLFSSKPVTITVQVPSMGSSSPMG
# T2: FcγRIIB (human, UniProt P31994 43-217, biotin-labeled)
# T2 construct: extracellular domain; Bought protein; also called CD32b
# T2 sequence (looked up): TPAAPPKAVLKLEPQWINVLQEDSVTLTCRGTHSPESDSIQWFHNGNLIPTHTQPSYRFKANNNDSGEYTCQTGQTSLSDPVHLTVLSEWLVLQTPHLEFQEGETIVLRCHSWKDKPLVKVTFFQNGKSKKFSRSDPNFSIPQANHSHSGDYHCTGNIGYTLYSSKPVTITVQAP
# T3: Biotin-FcγRIIB (human, UniProt P31994 43-217, limits assumed, biotin-labelled)
# T3 construct: Bought, biotin-labelled; used at 1 µg/ml for staining and sorting; also called human FcγRIIB; CD32b
# T3 sequence (looked up): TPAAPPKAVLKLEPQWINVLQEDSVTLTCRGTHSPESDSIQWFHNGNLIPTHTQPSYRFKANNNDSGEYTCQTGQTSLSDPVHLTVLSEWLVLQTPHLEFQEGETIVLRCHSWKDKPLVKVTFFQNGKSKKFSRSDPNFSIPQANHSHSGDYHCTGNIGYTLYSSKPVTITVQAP
# B1: wild-type IgG2 anti-human OX40 antibody (antibody)
# heavy: QVQLQESGPGLVKPSGTLSLTCAVSGGSISSSIWWSWVRQPPGKGLEWIGEIHHSGNTNCNPSLKSRVTISIDKSKNQFSLKLTSVTAADTAVYYCARAGTGTTLDYWGQGTLVTVSSASTKGPSVFPLAPCSRSTSESTAALGCLVKDYFPEPVTVSWNSGALTSGVHTFPAVLQSSGLYSLSSVVTVPSSNFGTQTYTCNVDHKPSNTKVDKTVERKCCVECPPCPAPPVAGPSVFLFPPKPKDTLMISRTPEVTCVVVDVSHEDPEVQFNWYVDGVEVHNAKTKPREEQFNSTFRVVSVLTVVHQDWLNGKEYKCKVSNKGLPAPIEKTISKTKGQPREPQVYTLPPSREEMTKNQVSLTCLVKGFYPSDIAVEWESNGQPENNYKTTPPMLDSDGSFFLYSKLTVDKSRWQQGNVFSCSVMHEALHNHYTQKSLSLSPGK
# light: EIVLTQSPGTLSLSPGERATLSCRASQSVSGDYLAWYQQKLGQAPRLLIYGASIRATGIPDRFSGSGSGTDFTLTISKLEPEDFAVYYCQQYGSSPLTFGGGTKVEIKRTVAAPSVFIFPPSDEQLKSGTASVVCLLNNFYPREAKVQWKVDNALQSGNSQESVTEQDSKDSTYSLSSTLTLSKADYEKHKVYACEVTHQGLSSPVTKSFNRGEC
# notes: also called WTIgG2
# B2: human IgG2 anti-mouse CD40 surface displayed antibody, Fc mutant S267E/D270H (antibody, name in EU numbering)
# light chain (with the P2A rest): DTVLTQSPALAVSPGERVTISCRASDSVSTLMHWYQQKPGQQPKLLIYLASHLESGVPARFSGSGSGTDFTLTIDPVEADDTATYYCQQSWNDPWTFGGGTKLELKRTVAAPSVFIFPPSDEQLKSGTASVVCLLNNFYPREAKVQWKVDNALQSGNSQESVTEQDSKDSTYSLSSTLTLSKADYEKHKVYACEVTHQGLSSPVTKSFNRGECGSGATNFSLLKQAGDVEENPG
# heavy chain: EVQLVESDGGLVQPGRSLKLPCAASGFTFSDYYMAWVRQAPTKGLEWVASISYDGSSTYYRDSVKGRFTISRDNAKSTLYLQMDSLRSEDTATYYCGRHSSYFDYWGQGVMVTVSSASTKGPSVFPLAPCSRSTSESTAALGCLVKDYFPEPVTVSWNSGALTSGVHTFPAVLQSSGLYSLSSVVTVPSSNFGTQTYTCNVDHKPSNTKVDKTVERKCCVECPPCPAPPVAGPSVFLFPPKPKDTLMISRTPEVTCVVVDVEHEHPEVQFNWYVDGVEVHNAKTKPREEQFNSTFRVVSVLTVVHQDWLNGKEYKCKVSNKGLPAPIEKTISKTKGQPREPQVYTLPPSREEMTKNQVSLTCLVKGFYPSDIAVEWESNGQPENNYKTTPPMLDSDGSFFLYSKLTVDKSRWQQGNVFSCSVMHEALHNHYTQKSLSLSPGKLEPPPSTVSNMATVAVLVVLGAAIVTGAVVAFVMKMRRRNTGGKGGDYALAPGSQTSDLSLPDCKVMVHDPHSLA
# notes: as m1; positions are Eu numbers; copies: 2 + 2
# B3: human IgG2 anti-mouse CD40 surface displayed antibody, Fc mutant S267E/P271V (antibody, name in EU numbering)
# light chain (with the P2A rest): DTVLTQSPALAVSPGERVTISCRASDSVSTLMHWYQQKPGQQPKLLIYLASHLESGVPARFSGSGSGTDFTLTIDPVEADDTATYYCQQSWNDPWTFGGGTKLELKRTVAAPSVFIFPPSDEQLKSGTASVVCLLNNFYPREAKVQWKVDNALQSGNSQESVTEQDSKDSTYSLSSTLTLSKADYEKHKVYACEVTHQGLSSPVTKSFNRGECGSGATNFSLLKQAGDVEENPG
# heavy chain: EVQLVESDGGLVQPGRSLKLPCAASGFTFSDYYMAWVRQAPTKGLEWVASISYDGSSTYYRDSVKGRFTISRDNAKSTLYLQMDSLRSEDTATYYCGRHSSYFDYWGQGVMVTVSSASTKGPSVFPLAPCSRSTSESTAALGCLVKDYFPEPVTVSWNSGALTSGVHTFPAVLQSSGLYSLSSVVTVPSSNFGTQTYTCNVDHKPSNTKVDKTVERKCCVECPPCPAPPVAGPSVFLFPPKPKDTLMISRTPEVTCVVVDVEHEDVEVQFNWYVDGVEVHNAKTKPREEQFNSTFRVVSVLTVVHQDWLNGKEYKCKVSNKGLPAPIEKTISKTKGQPREPQVYTLPPSREEMTKNQVSLTCLVKGFYPSDIAVEWESNGQPENNYKTTPPMLDSDGSFFLYSKLTVDKSRWQQGNVFSCSVMHEALHNHYTQKSLSLSPGKLEPPPSTVSNMATVAVLVVLGAAIVTGAVVAFVMKMRRRNTGGKGGDYALAPGSQTSDLSLPDCKVMVHDPHSLA
# notes: as for B2
# B4: human IgG2 anti-mouse CD40 surface displayed antibody, Fc mutant S267E/P271W (antibody, name in EU numbering)
# light chain (with the P2A rest): DTVLTQSPALAVSPGERVTISCRASDSVSTLMHWYQQKPGQQPKLLIYLASHLESGVPARFSGSGSGTDFTLTIDPVEADDTATYYCQQSWNDPWTFGGGTKLELKRTVAAPSVFIFPPSDEQLKSGTASVVCLLNNFYPREAKVQWKVDNALQSGNSQESVTEQDSKDSTYSLSSTLTLSKADYEKHKVYACEVTHQGLSSPVTKSFNRGECGSGATNFSLLKQAGDVEENPG
# heavy chain: EVQLVESDGGLVQPGRSLKLPCAASGFTFSDYYMAWVRQAPTKGLEWVASISYDGSSTYYRDSVKGRFTISRDNAKSTLYLQMDSLRSEDTATYYCGRHSSYFDYWGQGVMVTVSSASTKGPSVFPLAPCSRSTSESTAALGCLVKDYFPEPVTVSWNSGALTSGVHTFPAVLQSSGLYSLSSVVTVPSSNFGTQTYTCNVDHKPSNTKVDKTVERKCCVECPPCPAPPVAGPSVFLFPPKPKDTLMISRTPEVTCVVVDVEHEDWEVQFNWYVDGVEVHNAKTKPREEQFNSTFRVVSVLTVVHQDWLNGKEYKCKVSNKGLPAPIEKTISKTKGQPREPQVYTLPPSREEMTKNQVSLTCLVKGFYPSDIAVEWESNGQPENNYKTTPPMLDSDGSFFLYSKLTVDKSRWQQGNVFSCSVMHEALHNHYTQKSLSLSPGKLEPPPSTVSNMATVAVLVVLGAAIVTGAVVAFVMKMRRRNTGGKGGDYALAPGSQTSDLSLPDCKVMVHDPHSLA
# notes: as for B2
# B5: human IgG2 anti-mouse CD40 surface displayed antibody, Fc mutant S267E/P271Y (antibody, name in EU numbering)
# light chain (with the P2A rest): DTVLTQSPALAVSPGERVTISCRASDSVSTLMHWYQQKPGQQPKLLIYLASHLESGVPARFSGSGSGTDFTLTIDPVEADDTATYYCQQSWNDPWTFGGGTKLELKRTVAAPSVFIFPPSDEQLKSGTASVVCLLNNFYPREAKVQWKVDNALQSGNSQESVTEQDSKDSTYSLSSTLTLSKADYEKHKVYACEVTHQGLSSPVTKSFNRGECGSGATNFSLLKQAGDVEENPG
# heavy chain: EVQLVESDGGLVQPGRSLKLPCAASGFTFSDYYMAWVRQAPTKGLEWVASISYDGSSTYYRDSVKGRFTISRDNAKSTLYLQMDSLRSEDTATYYCGRHSSYFDYWGQGVMVTVSSASTKGPSVFPLAPCSRSTSESTAALGCLVKDYFPEPVTVSWNSGALTSGVHTFPAVLQSSGLYSLSSVVTVPSSNFGTQTYTCNVDHKPSNTKVDKTVERKCCVECPPCPAPPVAGPSVFLFPPKPKDTLMISRTPEVTCVVVDVEHEDYEVQFNWYVDGVEVHNAKTKPREEQFNSTFRVVSVLTVVHQDWLNGKEYKCKVSNKGLPAPIEKTISKTKGQPREPQVYTLPPSREEMTKNQVSLTCLVKGFYPSDIAVEWESNGQPENNYKTTPPMLDSDGSFFLYSKLTVDKSRWQQGNVFSCSVMHEALHNHYTQKSLSLSPGKLEPPPSTVSNMATVAVLVVLGAAIVTGAVVAFVMKMRRRNTGGKGGDYALAPGSQTSDLSLPDCKVMVHDPHSLA
# notes: as for B2
# Tests used:
# FcγRIIA^131R (human) = FcγRIIA^131R (human) (UniProt P12318); experiment: ELISA, coated antibody, biotin-FcγR;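 as to Absorbance value: antibody coated at 2 µg/mL at 100 µL per well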
# Biotin-FcγRIIB (human) = Biotin-FcγRIIB (human) (UniProt P31994); experiment: NGS of 3T3 display library C2 flow-sorted for FcγRIIB binding
# FcγRIIIA^158F = target: T4, FcγRIIIA^158F (human, UniProt P08637 17-208, biotin-labeled); experiment: ELISA, coated antibody, biotin-FcγR;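 as to Absorbance value: antibody coated at 2 µg/mL at 100 µL per well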
# T4 construct: extracellular domain; Bought protein; also called RIIIAF
# FcγRIIA^131H = target: T1, FcγRIIA^131H; experiment: ELISA, coated antibody, biotin-FcγR;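 as to Absorbance value: antibody coated at 2 µg/mL at 100 µL per well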
# FcγRIIB [1] = target: T2, FcγRIIB; experiment: ELISA, coated antibody, biotin-FcγR;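 as to Absorbance value: antibody coated at 2 µg/mL at 100 µL per well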
# FcγRI = target: T5, FcγRI (human, UniProt P12314 16-292, biotin-labeled); experiment: ELISA, coated antibody, biotin-FcγR;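 as to Absorbance value: antibody coated at 2 µg/mL at 100 µL per well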
# T5 construct: extracellular domain; Bought protein; also called CD64
# FcγRIIIA^158V = target: T6, FcγRIIIA^158V (human, UniProt P08637 17-208, biotin-labeled); experiment: ELISA, coated antibody, biotin-FcγR;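 as to Absorbance value: antibody coated at 2 µg/mL at 100 µL per well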
# T6 construct: extracellular domain; Bought protein; also called RIIIAV; CD16a 158V
# FcγRIIB [2] = target: T2, FcγRIIB; experiment: ELISA; relative affinity to FcγRIIB over that to FcγRIIA131R
# Biotin-FcγRIIB [3] = target: T3, Biotin-FcγRIIB; experiment: FACS sorting of displayed Fc library on biotin-FcγRIIB, NGS; reference S267E
# Biotin-FcγRIIB [4] = target: T3, Biotin-FcγRIIB; experiment: FACS sorting of displayed Fc library on biotin-FcγRIIB, NGS
# T4 sequence (P08637 17-208): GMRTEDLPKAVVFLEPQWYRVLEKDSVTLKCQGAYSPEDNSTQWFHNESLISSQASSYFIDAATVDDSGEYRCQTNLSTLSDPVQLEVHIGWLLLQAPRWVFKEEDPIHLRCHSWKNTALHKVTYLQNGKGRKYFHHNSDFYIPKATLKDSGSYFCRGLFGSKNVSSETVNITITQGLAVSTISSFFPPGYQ
# T5 sequence (P12314 16-292): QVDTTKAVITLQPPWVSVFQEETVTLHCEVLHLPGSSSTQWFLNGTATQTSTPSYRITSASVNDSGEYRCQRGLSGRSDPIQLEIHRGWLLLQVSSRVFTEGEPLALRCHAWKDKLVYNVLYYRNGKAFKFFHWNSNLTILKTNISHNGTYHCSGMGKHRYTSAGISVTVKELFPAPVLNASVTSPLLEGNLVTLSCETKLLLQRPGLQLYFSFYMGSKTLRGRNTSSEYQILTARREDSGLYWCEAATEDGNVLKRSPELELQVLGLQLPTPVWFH
# T6 sequence (P08637 17-208 F176V): as the sequence (P08637 17-208) above, with F160V counted along it
molecule,measurement,setting,value
IgG2 N297A (antibody),Absorbance value,FcγRIIA^131R (human),0.04 A650
"human IgG2 anti-mouse CD40 surface displayed antibody, V234Q/V266L/S267D/H268D/E269D/P271Q","enrichment factor, percentage after 3rd sorting/percentage after 2nd sorting",Biotin-FcγRIIB (human),15.4
same,percentage after 2nd sorting,Biotin-FcγRIIB (human),0%
same,percentage after 3rd sorting,Biotin-FcγRIIB (human),0.04%
B1,Absorbance value,FcγRIIIA^158F,0.06 A650
same,Relative binding affinity RIIIAF/G1,FcγRIIIA^158F,0.3 ratio
same,Absorbance value,FcγRIIA^131H,0.49 A650
same,Relative binding affinity RIIAH/G1,FcγRIIA^131H,0.85 ratio
same,Absorbance value,FcγRIIB [1],0.08 A650
same,Increased factor of RIIB binding compared with wild-type IgG2,FcγRIIB [1],1 fold
same,Relative binding affinity RIIB/G1,FcγRIIB [1],0.1 ratio
same,Absorbance value,FcγRI,0.08 A650
same,Relative binding affinity RI/G1,FcγRI,0.03 ratio
same,Absorbance value,FcγRIIIA^158V,0.05 A650
same,Relative binding affinity RIIIAV/G1,FcγRIIIA^158V,0.06 ratio
same,Absorbance value,FcγRIIA^131R (human),0.08 A650
same,Relative binding affinity RIIAR/G1,FcγRIIA^131R (human),0.29
same,RIIB/RIIAR,FcγRIIB [2],0.34 ratio
B2,Increased factor 2 c Site 1 (combined/point mutation),Biotin-FcγRIIB [3],2.6
same,Enrichment factor (after/before sorting),Biotin-FcγRIIB [4],42.7
same,Increased factor a (enrichment factor/wild-type enrichment factor),Biotin-FcγRIIB [4],74.3
B3,Increased factor 2 c Site 1 (combined/point mutation),Biotin-FcγRIIB [3],1.4
same,Enrichment factor (after/before sorting),Biotin-FcγRIIB [4],22.1
same,Increased factor a (enrichment factor/wild-type enrichment factor),Biotin-FcγRIIB [4],38.4
B4,Increased factor 2 c Site 1 (combined/point mutation),Biotin-FcγRIIB [3],1.5
same,Enrichment factor (after/before sorting),Biotin-FcγRIIB [4],24
same,Increased factor a (enrichment factor/wild-type enrichment factor),Biotin-FcγRIIB [4],41.8
B5,Increased factor 2 c Site 1 (combined/point mutation),Biotin-FcγRIIB [3],1.2
same,Enrichment factor (after/before sorting),Biotin-FcγRIIB [4],19.2
same,Increased factor a (enrichment factor/wild-type enrichment factor),Biotin-FcγRIIB [4],33.4
